In paper PMC10907721:

Biological target: T1, Hop1 CBR WT (Saccharomyces cerevisiae) (UniProt P20050)
T1 sequence: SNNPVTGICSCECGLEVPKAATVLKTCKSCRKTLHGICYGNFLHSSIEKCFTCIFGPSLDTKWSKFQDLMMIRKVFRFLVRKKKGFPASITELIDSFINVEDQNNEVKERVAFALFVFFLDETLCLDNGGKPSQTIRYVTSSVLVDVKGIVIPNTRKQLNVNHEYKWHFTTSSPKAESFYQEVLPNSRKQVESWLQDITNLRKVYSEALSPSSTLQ
Test: EMSA
Conditions: EMSA: 20 mM Tris-HCl pH 7.5, 25 mM NaCl, 2 mM beta-mercaptoethanol, 10% glycerol; 50 nM nucleosome or DNA; 15 min room temperature; 6% TBE-acrylamide gel, 0.2X …

Sequence: TGGAGAATCCCGGTGCCGAGGCCGCTCAATTGGTCGTAGACAGCTCTAGCACCGCTTAAACGCACGTACGCGCTGTCCCCCGCGTTTTAACCGCCAAGGGGATTACTCCCTAGTCTCCAGGCACGTGTCAGATATATACATCCTGT (double strand) [Widom 601 mononucleosome (human histones)]
- Kd: 470 nM
